From publication PMC8778164, “Towards Complete Tumor Resection: Novel Dual-Modality Probes for Improved Image-Guided Surgery of GRPR-Expressing Prostate Cancer” (Pharmaceutics, 2022)

Assays:
GRPR = biological target: T1, GRPR (Homo sapiens, UniProt P30550); experiment: Competition binding assay against [111In]In-NeoB on PC-3 cells; conditions: IC50 of compound over IC50 of NeoB
T1 construct: host or cells: PC-3 cells (human prostate adenocarcinoma)
Protocol: GRPR-positive human-derived prostate adenocarcinoma epithelial PC-3 cells (ATCC, Manassas, VA, USA) were cultured in Ham’s F-12K (Kaighn’s) Medium (Gibco, Paisley, UK) supplemented with 10% fetal bovine serum, penicillin (100 units/mL) and streptomycin (100 µg/mL). Cells were routinely passaged and grown in tissue culture flasks at 37 °C in a humidified atmosphere with 5% CO2.
The affinity of all six probes for GRPR was determined using a competition binding assay. PC-3 cells were seeded in 12-well plates (2.5 × 10^5 cells/well) one day prior to the experiment. The next day, cells were washed with warm Dulbecco’s phosphate-buffered saline (PBS) (Gibco). Subsequently, cells were incubated for 1 h at 37 °C with 0.5 mL incubation medium (Ham’s F-12K, 20 mM HEPES, 1% BSA, pH 7.4) containing 10^−9 M [^111In]In-NeoB, in the presence or absence of increasing concentrations (10^−12 to 10^−6 M) of one of the six unlabeled probes or NeoB (positive control). After incubation, the medium was removed and cells were washed twice with cold PBS. To determine the amount of activity that was taken up by the cells, cells were lysed using 1 M NaOH for > 20 min at rt, then collected and measured in a γ-counter. To determine the amount of radioactivity added per well, samples of the incubation medium containing 10^−9 M [^111In]In-NeoB were also measured. The results are expressed as the percentage of added dose (%AD) and were normalized to the uptake of [^111In]In-NeoB (in the absence of cold compound). Data represent the mean ± standard deviation (SD) of triplicate wells.
Statistical analysis was performed using GraphPad Prism version 5.01 (GraphPad Software Inc., San Diego, CA, USA). The half-maximal inhibitory concentration (IC50) values were estimated by the log (inhibitor) vs. the normalized response fitting routine. To compare the uptake values of the two probes studied in vivo, an unpaired t-test was used with the significance levels set at 5%. The results are represented as mean ± standard deviation (SD).

[1] = Distribution coefficient (LogD7.4), shake-flask method; type: physicochemical; conditions: n-octanol/PBS pH 7.4, n = 3; read-out: Log D7.4
Protocol: Distribution coefficients (LogD7.4) for the ^111In-labeled compounds were determined by a shake-flask method. The experiments were performed in triplicate for each radioligand. A sample containing the radioligand (0.5–2.0 MBq) was dissolved in 1 mL solution of phosphate-buffered saline (0.01 M, pH 7.4) and n-octanol (v:v = 1:1). The vials were vortexed vigorously and then centrifuged at 10,000 rpm for 3 min, for phase separation. Samples (10 μL) of each phase were taken out and analyzed using a gamma counter. LogD7.4 values were calculated, using the following equation: LogD7.4 = log {(counts in n-octanol phase)/(counts in PBS phase)}.

[2] = Stability in PBS at 37 °C (iTLC); type: physicochemical; conditions: intact labeled ligand after incubation at 37 °C in PBS, n = 1
Protocol: (§1) Stability in PBS was determined by incubating 20 µL of the labeled compounds (∼11 MBq) in PBS (80 µL) at 37 °C. Radiochemical purity was determined by iTLC at 30 min, 1 h, 2 h and 4 h. Stability in the serum was carried out by adding 70 µL of the labeled compound (∼35 MBq) to 330 µL of mouse serum (Merck, Haarlerbergweg, The Netherlands). The mixture was incubated at 37 °C. At different time points (30 min, 1 h, 2 h and 4 h), an aliquot of the mixture (50 µL) was added to 50 µL ACN. The vial was vortexed and centrifuged at 10,000 rpm for 20 min and the supernatant was analyzed by iTLC.

[3] = Stability in mouse serum at 37 °C (iTLC); type: in vitro ADME; conditions: for Stability in Mouse Serum (%) 30 min / Stability in Mouse Serum (%) 1 h / Stability in Mouse Serum (%) 2 h / Stability in Mouse Serum (%) 4 h: intact labeled ligand after incubation at 37 °C in mouse serum, n = 1
Protocol: as §1

T1 sequence (P30550 whole entry): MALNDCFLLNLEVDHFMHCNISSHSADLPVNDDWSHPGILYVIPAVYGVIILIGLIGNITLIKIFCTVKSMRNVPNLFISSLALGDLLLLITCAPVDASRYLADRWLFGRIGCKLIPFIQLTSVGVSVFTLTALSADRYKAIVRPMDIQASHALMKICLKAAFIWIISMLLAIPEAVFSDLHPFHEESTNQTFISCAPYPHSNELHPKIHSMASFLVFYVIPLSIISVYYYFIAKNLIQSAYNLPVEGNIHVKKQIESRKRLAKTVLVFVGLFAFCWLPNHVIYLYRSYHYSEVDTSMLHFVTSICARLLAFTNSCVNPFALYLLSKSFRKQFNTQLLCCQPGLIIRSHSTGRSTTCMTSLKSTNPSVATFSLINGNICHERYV

In the case of `CC(C)CC(CC(C)C)NC(=O)[C@H](Cc1c[nH]cn1)NC(=O)CNC(=O)[C@@H](NC(=O)[C@H](C)NC(=O)[C@H](Cc1c[nH]c2ccccc12)NC(=O)[C@H](CCC(N)=O)NC(=O)[C@@H](Cc1ccccc1)NC(=O)COCC(=O)Nc1ccc(CNC(=O)OC2CCCC3C=NN=C(c4ccc(CNC(=O)CCCCC[N+]5=C(/C=C/C=C/C=C6N(C)c7ccc(S(=O)(=O)O)cc7C6(C)C)C(C)(C)c6cc(S(=O)(=O)[O-])ccc65)cc4)C3CC2)cc1)C(C)C` (some centres unmarked) [Compound 10], the “Ratio Compound/NeoB (IC50)” value (GRPR) is reported as 12.9.

In the case of `CC(C)CC(CC(C)C)NC(=O)[C@H](Cc1c[nH]cn1)NC(=O)CNC(=O)[C@@H](NC(=O)[C@H](C)NC(=O)[C@H](Cc1c[nH]c2ccccc12)NC(=O)[C@H](CCC(N)=O)NC(=O)[C@@H](Cc1ccccc1)NC(=O)CCOCCOCCOCCOCCNC(=O)OC1CCCC2C=NN=C(c3ccc(CNC(=O)CCCCC[N+]4=C(/C=C/C=C/C=C5N(C)c6ccc(S(=O)(=O)O)cc6C5(C)C)C(C)(C)c5cc(S(=O)(=O)[O-])ccc54)cc3)C2CC1)C(C)C` (some centres unmarked) [Compound 11], the “Ratio Compound/NeoB (IC50)” value (GRPR) is reported as 4.5.

With `CC(C)CC(CC(C)C)NC(=O)[C@H](Cc1c[nH]cn1)NC(=O)CNC(=O)[C@@H](NC(=O)[C@H](C)NC(=O)[C@H](Cc1c[nH]c2ccccc12)NC(=O)[C@H](CCC(N)=O)NC(=O)[C@@H](Cc1ccccc1)NC(=O)COCC(=O)Nc1ccc(CNC(=O)[C@H](CCCCNC(=O)CCOCCOCCOCCOCCNC(=O)OC2CCCC3C=NN=C(c4ccc(CNC(=O)CCCCC[N+]5=C(/C=C/C=C/C=C6N(C)c7ccc(S(=O)(=O)O)cc7C6(C)C)C(C)(C)c6cc(S(=O)(=O)[O-])ccc65)cc4)C3CC2)NC(=O)CN2CCN(CC(=O)O)CCN(CC(=O)O)CCN(CC(=O)O)CC2)cc1)C(C)C` (some centres unmarked) [Compound 12] the “Ratio Compound/NeoB (IC50)” value (GRPR) was 9.1.

In the case of `CC(C)CC(CC(C)C)NC(=O)[C@H](Cc1c[nH]cn1)NC(=O)CNC(=O)[C@@H](NC(=O)[C@H](C)NC(=O)[C@H](Cc1c[nH]c2ccccc12)NC(=O)[C@H](CCC(N)=O)NC(=O)[C@@H](Cc1ccccc1)NC(=O)CCOCCOCCOCCOCCNC(=O)[C@H](CCCCNC(=O)CCOCCOCCOCCOCCNC(=O)OC1CCCC2C=NN=C(c3ccc(CNC(=O)CCCCC[N+]4=C(/C=C/C=C/C=C5N(C)c6ccc(S(=O)(=O)O)cc6C5(C)C)C(C)(C)c5cc(S(=O)(=O)[O-])ccc54)cc3)C2CC1)NC(=O)CN1CCN(CC(=O)O)CCN(CC(=O)O)CCN(CC(=O)O)CC1)C(C)C` (some centres unmarked) [Compound 13], the “Ratio Compound/NeoB (IC50)” value (GRPR) is reported as 18.2.

For `CC(C)CC(CC(C)C)NC(=O)[C@H](Cc1c[nH]cn1)NC(=O)CNC(=O)[C@@H](NC(=O)[C@H](C)NC(=O)[C@H](Cc1c[nH]c2ccccc12)NC(=O)[C@H](CCC(N)=O)NC(=O)[C@@H](Cc1ccccc1)NC(=O)COCC(=O)Nc1ccc(CNC(=O)[C@H](CCCCNC(=O)OC2CCCC3C=NN=C(c4ccc(CNC(=O)CCCCC[N+]5=C(/C=C/C=C/C=C6N(C)c7ccc(S(=O)(=O)O)cc7C6(C)C)C(C)(C)c6cc(S(=O)(=O)[O-])ccc65)cc4)C3CC2)NC(=O)CN2CCN(CC(=O)O)CCN(CC(=O)O)CCN(CC(=O)O)CC2)cc1)C(C)C` (some centres unmarked) [Compound 14], the “Ratio Compound/NeoB (IC50)” value (GRPR) was 24.6.

In the case of `CC(C)CC(CC(C)C)NC(=O)[C@H](Cc1c[nH]cn1)NC(=O)CNC(=O)[C@@H](NC(=O)[C@H](C)NC(=O)[C@H](Cc1c[nH]c2ccccc12)NC(=O)[C@H](CCC(N)=O)NC(=O)[C@@H](Cc1ccccc1)NC(=O)CCOCCOCCOCCOCCNC(=O)[C@H](CCCCNC(=O)OC1CCCC2C=NN=C(c3ccc(CNC(=O)CCCCC[N+]4=C(/C=C/C=C/C=C5N(C)c6ccc(S(=O)(=O)O)cc6C5(C)C)C(C)(C)c5cc(S(=O)(=O)[O-])ccc54)cc3)C2CC1)NC(=O)CN1CCN(CC(=O)O)CCN(CC(=O)O)CCN(CC(=O)O)CC1)C(C)C` (some centres unmarked) [Compound 15], the “Ratio Compound/NeoB (IC50)” value (GRPR) is reported as 11.2.

For `CC(C)CC(CC(C)C)NC(=O)[C@H](Cc1c[nH]cn1)NC(=O)CNC(=O)[C@@H](NC(=O)[C@H](C)NC(=O)[C@H](Cc1c[nH]c2ccccc12)NC(=O)[C@H](CCC(N)=O)NC(=O)[C@@H](Cc1ccccc1)NC(=O)CCOCCOCCOCCOCCNC(=O)[C@H](CCCCNC(=O)CCOCCOCCOCCOCCNC(=O)OC1CCCC2C=NN=C(c3ccc(CNC(=O)CCCCC[N+]4=C(/C=C/C=C/C=C5N(C)c6ccc(S(=O)(=O)O)cc6C5(C)C)C(C)(C)c5cc(S(=O)(=O)[O-])ccc54)cc3)C2CC1)NC(=O)CN1CCN(CC(=O)O)CCN(CC(=O)O)CCN(CC(=O)O)CC1)C(C)C` (some centres unmarked) [[^111In]In-13, metal not drawn], the logD [1] was -1.8 ± 0.01, the “Stability in PBS (%) 30 min” value [2] was 87.4% and the “Stability in PBS (%) 1 h” value [2] was 87.5%. For the same molecule, the “Stability in PBS (%) 2 h” value [2] was 86.2%, the “Stability in PBS (%) 4 h” value [2] was 84.4% and the “Stability in Mouse Serum (%) 30 min” value [3] was 98.1%. For the same molecule, the “Stability in Mouse Serum (%) 1 h” value [3] was 97.9%, the “Stability in Mouse Serum (%) 2 h” value [3] was 97.6% and the “Stability in Mouse Serum (%) 4 h” value ([3]; 4 h) was 97.3%. The “Protein-Bound Fraction at 4 h (%)” value ([3]; mouse serum, 4 h) was 5.6%.

For `CC(C)CC(CC(C)C)NC(=O)[C@H](Cc1c[nH]cn1)NC(=O)CNC(=O)[C@@H](NC(=O)[C@H](C)NC(=O)[C@H](Cc1c[nH]c2ccccc12)NC(=O)[C@H](CCC(N)=O)NC(=O)[C@@H](Cc1ccccc1)NC(=O)COCC(=O)Nc1ccc(CNC(=O)[C@H](CCCCNC(=O)OC2CCCC3C=NN=C(c4ccc(CNC(=O)CCCCC[N+]5=C(/C=C/C=C/C=C6N(C)c7ccc(S(=O)(=O)O)cc7C6(C)C)C(C)(C)c6cc(S(=O)(=O)[O-])ccc65)cc4)C3CC2)NC(=O)CN2CCN(CC(=O)O)CCN(CC(=O)O)CCN(CC(=O)O)CC2)cc1)C(C)C` (some centres unmarked) [[^111In]In-14, metal not drawn], the logD [1] was -1.52 ± 0.1, the “Stability in PBS (%) 30 min” value [2] was 74.2% and the “Stability in PBS (%) 1 h” value [2] was 48.5%. The “Stability in PBS (%) 2 h” value [2] was 30.9%, the “Stability in PBS (%) 4 h” value [2] was 33.7% and the “Stability in Mouse Serum (%) 30 min” value [3] was 94.6%. For the same molecule, the “Stability in Mouse Serum (%) 1 h” value [3] was 94.1%, the “Stability in Mouse Serum (%) 2 h” value [3] was 94.0% and the “Stability in Mouse Serum (%) 4 h” value ([3]; 4 h) was 94.1%. It also gave a fraction unbound at 4 h ([3]; mouse serum, 4 h, read-out: Protein-Bound Fraction at 4 h (%) (converted)) of 0.929.
